± gives the standard deviation of the averaged measurements.

The subject of series [1] is Saccharomyces cerevisiae. The series is described as follows: protein stability index of tFT-peptide fusion (C-terminal peptide) (PSI (0-1 scale)); higher = more stable (slower turnover). How it is done:
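MPS profiling in S. cerevisiae of the tFT-X12 degron library: putative degron peptides plus stable controls, 12 aa, fused to the C-terminus of a sfGFP-mCherry timer. Cells are FACS-sorted into 8 mCherry/sfGFP bins and deep-sequenced. PSI runs from 0 (unstable) to 1 (stable). Backgrounds are wild type, das1Δ and doa10Δ at 30 °C, and wild type, das1Δ, cdc34-1 and cdc53-1 at 37 °C; 2-3 technical replicates each.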

The subject of series [2] is Saccharomyces cerevisiae. The description is as above. The following applies: genetic background: wild type; temperature: 30 C.
Where [3] appears, read: genetic background: cdc34-1, temperature: 37 C.
Setting [4] is: genetic background: cdc53-1, temperature: 37 C.
[5] abbreviates: genetic background: das1 deletion, temperature: 30 C.
Where [6] appears, read: genetic background: das1 deletion, temperature: 37 C.
The mark [7] stands for this setting: genetic background: doa10 deletion, temperature: 30 C.
Setting [8] is: genetic background: wild type, temperature: 30 C.
Where [9] appears, read: genetic background: wild type, temperature: 37 C.
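Note: PSI is a weighted mean of sequencing reads over stability bins, variants kept only with over 10 reads, mCherry proximal and sfGFP distal, peptide attached via GGGS linker.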

For AAFLGVLCWCWG, the protein stability index is 0.436 ± 0.039 in series [1] (setting [3]); 0.465 ± 0.0079 in series [1] (setting [4]); 0.363 ± 0.033 in series [1] (setting [5]); 0.486 ± 0.0051 in series [1] (setting [6]); 0.323 ± 0.0063 in series [1] (setting [7]); 0.351 ± 0.019 in series [1] (setting [8]). In addition, the protein stability index in series [1] (setting [9]) was determined as 0.4703 ± 0.00083; in series [2] it was 0.433 ± 0.011.

As for ACVRFPLVLVVF, the protein stability index in series [1] (setting [3]) is 0.0242 ± 0.0039; in series [1] (setting [4]), 0.0448 ± 0.015; in series [1] (setting [5]), 0.0965 ± 0.018; in series [1] (setting [6]), 0.0904 ± 0.0059; in series [1] (setting [7]), 0.0902 ± 0.022; in series [1] (setting [8]) it was 0.0825 ± 0.029. Besides, the protein stability index in series [1] (setting [9]) was determined as 0.0644 ± 0.0039; in series [2], 0.147 ± 0.014.

For the sequence AFKRVFWALWWM, the protein stability index in series [1] (setting [3]) came to 0.367 ± 0.01; in series [1] (setting [4]), 0.39 ± 0.0072; in series [1] (setting [5]), 0.421 ± 0.03; in series [1] (setting [6]) it was 0.563 ± 0.039; in series [1] (setting [7]) it was 0.431 ± 0.032; in series [1] (setting [8]), 0.299 ± 0.022. Moreover, the protein stability index in series [1] (setting [9]) is 0.43827 ± 0.00033; in series [2], 0.36 ± 0.014.

On to AFLFLFSITCIV, for which the protein stability index in series [1] (setting [3]) worked out at 0.181 ± 0.011; in series [1] (setting [4]), 0.23 ± 0.0042; in series [1] (setting [5]), 0.195 ± 0.029; in series [1] (setting [6]) it was 0.342 ± 0.0063; in series [1] (setting [7]), 0.197 ± 0.014; in series [1] (setting [8]) it was 0.19 ± 0.028. The protein stability index in series [1] (setting [9]) worked out at 0.313 ± 0.0012; in series [2], 0.241 ± 0.013.

For the sequence AFPVGFLVGLVV, the protein stability index in series [1] (setting [3]) stood at 0.4381 ± 0.0028; in series [1] (setting [4]) it was 0.469 ± 0.011; in series [1] (setting [5]), 0.345 ± 0.024; in series [1] (setting [6]), 0.499 ± 0.0067; in series [1] (setting [7]), 0.319 ± 0.0075; in series [1] (setting [8]), 0.348 ± 0.021. The protein stability index is 0.4647 ± 0.0044 in series [1] (setting [9]) and 0.431 ± 0.0065 in series [2].

AGCFFVVLCGFF: the protein stability index in series [1] (setting [3]) was 0.436 ± 0.018; in series [1] (setting [4]), 0.503 ± 0.04; in series [1] (setting [5]), 0.334 ± 0.035; in series [1] (setting [6]), 0.495 ± 0.016; in series [1] (setting [7]), 0.311 ± 0.0056; in series [1] (setting [8]), 0.326 ± 0.0067. In addition, the protein stability index in series [1] (setting [9]) came to 0.4673 ± 0.0025; in series [2], 0.431 ± 0.0071.

As for AIDLCIAVVGMV, the protein stability index is 0.479 ± 0.042 in series [1] (setting [3]); 0.491 ± 0.029 in series [1] (setting [4]); 0.338 ± 0.035 in series [1] (setting [5]); 0.5106 ± 0.0023 in series [1] (setting [6]); 0.311 ± 0.015 in series [1] (setting [7]); 0.342 ± 0.026 in series [1] (setting [8]). The protein stability index is 0.4829 ± 0.001 in series [1] (setting [9]) and 0.4439 ± 0.0022 in series [2].

Take AITHVILLVTPL: the protein stability index in series [1] (setting [3]) was determined as 0.562 ± 0.02; in series [1] (setting [4]), 0.5803 ± 0.0043; in series [1] (setting [5]), 0.411 ± 0.025; in series [1] (setting [6]), 0.61 ± 0.059; in series [1] (setting [7]) it was 0.384 ± 0.0029; in series [1] (setting [8]), 0.417 ± 0.022. For the same sequence, the protein stability index in series [1] (setting [9]) worked out at 0.552 ± 0.0087; in series [2], 0.507 ± 0.04.

Take ALFVGVVLLVCW: the protein stability index in series [1] (setting [3]) came out at 0.0857 ± 0.0098; in series [1] (setting [4]), 0.193 ± 0.023; in series [1] (setting [5]), 0.177 ± 0.023; in series [1] (setting [6]) it was 0.28 ± 0.0069; in series [1] (setting [7]), 0.154 ± 0.013; in series [1] (setting [8]), 0.156 ± 0.032. For the same sequence, the protein stability index in series [1] (setting [9]) was determined as 0.24564 ± 0.00015; in series [2], 0.298 ± 0.013.
